Results on three molecules are retold here after patent US12077763B2, “RNA-based control of powdery mildew” (Greenlight Biosciences, Inc., priority 2021, dated 2024).

B1: GS1835: dsRNA trigger SEQ ID NO 159; gene target Probable glutamine--fructose-6-phosphate aminotransferase [isomerizing] (nucleic acid)
DNA: CCGATGACAAGGGGAGATCCTTTTCTTGCCGCAATTACTTCATGGGGATAATGGACTGATTTTAGTAGAAGTCCAAATGCTCCTTGCAGCTCCTTGATGACGGCCTTAGCTAAGTCCGTAAAAGTAATTGTTGGGTGCTGGTCATATATATACTTAGCAAGCTTGGCAATACACTCAGTATCAGTCTCTGTCTCAAATTTATGGCCCTTTGAGATAAGTAGGGTTTTGAGCTCTTTATAGTTTATTATGATTCCATTATGAACAACACTGAACTGCCATTTGGGGTCACTACGATGAGGATGGCAATTCAATCTTGATGGAGGGCCATGGGTGGCCCATCTAGTATGTGCAATACCAGCATGGGAGTCAAAAACTTTGGAGTTATCTAGTTGCGACTCCTGGACAAGTTGCTTTAATTTTGCAACCTTTCCAACTTCTTTGAACGCAAAAACTTCATCTTTTTCATCCCCGTCAATTGCGAGCCCGGCACTGTCGTAGCCACGGTATTCCAAGCGAGAGAGACCGTTGACAAGTGTTTCAAGAATGTGTTTGCGATCCTTTTCAATGAGATAATTAATATAGCCAAAGAT
B2: GS1834: dsRNA trigger SEQ ID NO 189; gene target Tubulin beta-2 chain (nucleic acid)
DNA: CTCGTCCATTCCTTCTCCAGTATACCAATGTAAGAAAGCTTTTCTTCTAAACATAGCTGTGAATTGATCCCCAACGCGCTTAAAGAGTTCTTGAATGGAAGTGGAGTTTCCTACAAATGTAGATGACATCTTAAGACCACGAGGTGGAATAGAGCAGAGTGCGGTTTGTACATTATTAGGGATCCACTCGACAAAATATGCAGAGTTCTTATTTTGTACATTGCGCATTTGGTCCTCTACTTCTTTCATTGATACCTTACCTCGAAATATTGCTGAACATGTTAAATAGCGCCCGTTTCGGAAATCAGACGCTGCCATCATATTTTTGGGGTCGTACATTTGCTGAGTCAACTCGGGAACAGTAACTGCGCGGAAAGAGTGGGCACCGCGACTTGTTAGAGGAGCAAATCCAACCATAAAAAAATGAAGACGAGGAAATGGAACCATGTTAACTGCTAACTTTCGAAGATCTGAGTTGAGTTGACCTGGGAAACGAAGACATGTTGTTACACCTGACATGACTGCAGATACCAAATGATTCAAATCACCATATGATGGGTTTGAAAGCTTTAAAGTTCTCATACATATTT
B3: GS1836: dsRNA trigger SEQ ID NO 121; gene target Integral membrane protein/Pth11 homolog (nucleic acid)
DNA: GCTTTTCAATGTCGACCTGCAAACTACCTTTGGCAACAACTTGATTCAAAATTATATTCTGGAAGCTGTTTGAGCAAGGAGAGTATAGCCGATATTATATATGCTCATGCATCTATAAGTTGTTTAATTGACTGGATCTTTGGGATATTACCGATTTTAATTCTCTGGAAACTCGACATGAAGTTCAAGACCAAGCTCTCTATAATGATCGTTCTTTCATTAAGTATAGTAGCCTCTATAGCTACTGTTATACGTATTATTTACCTCCATATTCTTAAGAATGTGTCACAATCCGGTTGGGATGGTTTTGGATTAATAAAATGGTCTTTACTAGAACCAGCCATTGCCTTGACAGCTGCAAATATTGCAACTCTCAGGCCACTTACGCAAAAGTTATTTTCAAAAAAACGACGACCATCTAAATCACAACCACCTAAGCTTTCTCTCAATGCTATTCGGGGCTTAAGTCGGAAGTCTTCAGTATGTTGTTCAAGTGAATTTGCAGATATGTTAGGGCTAGCAGTATCACCTGGCGTGAAAACTCGAGTCTATGCTGATAGAAGACTTGATAACACTATCCAAAAAAGA

One data set relates to E. necator. The experiment in a line: Leaf disc assay, dry inoculum (settling tower), decrease in disease severity / hyphal growth (Example 2). The settings on record: decrease in disease severity (hyphal growth) relative to untreated control; time point 1 (untreated control hyphal growth ≥50%); value ± SE.
B1: the “% decrease =/− SE TP1” value worked out at 25 ± 6%.
Consider B2, for which the “% decrease =/− SE TP1” value is listed as 8 ± 4%.
On the same count and under the same terms, then B3, with 23 ± 6%.

Staying with this data set, now noted: decrease in disease severity (hyphal growth) relative to untreated control; time point 2; value ± SE.
With B1, the “% decrease =/− SE TP2” value turned out to be 24 ± 6%.
Still for that read-out and setting: then B2, with 15 ± 6%; and B3, with 22 ± 6%.
